From paper PMC10039853, “Increasing the melting temperature of VHH with the in silico free energy score” (Scientific Reports, 2023)
Residue numbers refer to the chain shown, from its start. Names may count otherwise.

B1: D3-L11 A79R (VHH)
VHH: DVQLVESGGGSVQAGGSLRLSCAASGSTDSIEYMTWFRQAPGKAREGVAALYTHTGNTYYTDSVKGRFTISQDKAKNMRYLRMDSVKSEDTAIYTCGATRKYVPVRFALDQSSYDYWGQGTQVTVSS
notes: as the VHH chain of Sm1 (D3-L11 wild type, PDB 6JB8) with A79R; SAG tripeptide linker before the C-terminal 6xHis tag; source: ExpiCHO, transient transfection, purified from supernatant (His Mag Sepharose excel); not shown: His6, C-terminal, kept
B2: D3-L11 A79W (VHH)
VHH: B1 VHH with R79W
notes: as the VHH chain of m2 (D3-L11, PDB 6JB8) with the stated substitution; Second-round mutant; same construct as m2; also called W mutant; source: ExpiCHO, transient transfection, purified from supernatant (His Mag Sepharose excel); not shown: His6 (after a SAG tripeptide linker), C-terminal, kept
B3: D3-L11 A79Q (VHH)
VHH: B1 VHH with R79Q
notes: as the VHH chain of m2 (D3-L11, PDB 6JB8) with the stated substitution; Second-round mutant; same construct as m2; also called Q mutant; source: ExpiCHO, transient transfection, purified from supernatant (His Mag Sepharose excel); not shown: His6 (after a SAG tripeptide linker), C-terminal, kept
B4: D3-L11 A79I (VHH)
VHH: B1 VHH with R79I
notes: as the VHH chain of m2 (D3-L11, PDB 6JB8) with the stated substitution; Second-round mutant; same construct as m2; also called I mutant; source: ExpiCHO, transient transfection, purified from supernatant (His Mag Sepharose excel); not shown: His6 (after a SAG tripeptide linker), C-terminal, kept
B5: D3-L11 A79C (VHH)
VHH: B1 VHH with R79C
notes: as the VHH chain of m2 (D3-L11, PDB 6JB8) with the stated substitution; Second-round mutant; same construct as m2; also called C mutant; source: ExpiCHO, transient transfection, purified from supernatant (His Mag Sepharose excel); not shown: His6 (after a SAG tripeptide linker), C-terminal, kept
B6: D3-L11 A79S (VHH)
VHH: B1 VHH with R79S
notes: as the VHH chain of m2 (D3-L11, PDB 6JB8) with the stated substitution; Second-round mutant; same construct as m2; also called S mutant; source: ExpiCHO, transient transfection, purified from supernatant (His Mag Sepharose excel); not shown: His6 (after a SAG tripeptide linker), C-terminal, kept
B7: D3-L11 A79L (VHH)
VHH: B1 VHH with R79L
notes: as the VHH chain of m2 (D3-L11, PDB 6JB8) with the stated substitution; Second-round mutant; same construct as m2; also called L mutant; source: ExpiCHO, transient transfection, purified from supernatant (His Mag Sepharose excel); not shown: His6 (after a SAG tripeptide linker), C-terminal, kept
B8: D3-L11 A79N (VHH)
VHH: B1 VHH with R79N
notes: as the VHH chain of m2 (D3-L11, PDB 6JB8) with the stated substitution; Second-round mutant; same construct as m2; also called N mutant; source: ExpiCHO, transient transfection, purified from supernatant (His Mag Sepharose excel); not shown: His6 (after a SAG tripeptide linker), C-terminal, kept
B9: D3-L11 A79M (VHH)
VHH: B1 VHH with R79M
notes: as the VHH chain of m2 (D3-L11, PDB 6JB8) with the stated substitution; Second-round mutant; same construct as m2; also called M mutant; source: ExpiCHO, transient transfection, purified from supernatant (His Mag Sepharose excel); not shown: His6 (after a SAG tripeptide linker), C-terminal, kept
B10: D3-L11 A79R (VHH)
VHH: B1 VHH
notes: as the VHH chain of m2 (D3-L11, PDB 6JB8) with the stated substitution; Second-round mutant; same construct as m2; also called R mutant; source: ExpiCHO, transient transfection, purified from supernatant (His Mag Sepharose excel); not shown: His6 (after a SAG tripeptide linker), C-terminal, kept
B11: D3-L11 A79Y (VHH)
VHH: B1 VHH with R79Y
notes: as the VHH chain of m2 (D3-L11, PDB 6JB8) with the stated substitution; Second-round mutant; same construct as m2; also called Y mutant; source: ExpiCHO, transient transfection, purified from supernatant (His Mag Sepharose excel); not shown: His6 (after a SAG tripeptide linker), C-terminal, kept
B12: D3-L11 A79H (VHH)
VHH: B1 VHH with R79H
notes: as the VHH chain of m2 (D3-L11, PDB 6JB8) with the stated substitution; Second-round mutant; same construct as m2; also called H mutant; source: ExpiCHO, transient transfection, purified from supernatant (His Mag Sepharose excel); not shown: His6 (after a SAG tripeptide linker), C-terminal, kept
B13: D3-L11 A79F (VHH)
VHH: B1 VHH with R79F
notes: as the VHH chain of m2 (D3-L11, PDB 6JB8) with the stated substitution; First-round mutant; same construct as m2; also called F mutant; source: ExpiCHO, transient transfection, purified from supernatant (His Mag Sepharose excel); not shown: His6 (after a SAG tripeptide linker), C-terminal, kept
B14: D3-L11 A79V (VHH)
VHH: B1 VHH with R79V
notes: as the VHH chain of m2 (D3-L11, PDB 6JB8) with the stated substitution; Second-round mutant; same construct as m2; also called V mutant; source: ExpiCHO, transient transfection, purified from supernatant (His Mag Sepharose excel); not shown: His6 (after a SAG tripeptide linker), C-terminal, kept
B15: D3-L11 A79T (VHH)
VHH: B1 VHH with R79T
notes: as the VHH chain of m2 (D3-L11, PDB 6JB8) with the stated substitution; Second-round mutant; same construct as m2; also called T mutant; source: ExpiCHO, transient transfection, purified from supernatant (His Mag Sepharose excel); not shown: His6 (after a SAG tripeptide linker), C-terminal, kept
B16: D3-L11 A79P (VHH)
VHH: B1 VHH with R79P
notes: as the VHH chain of m2 (D3-L11, PDB 6JB8) with the stated substitution; Second-round mutant; same construct as m2; Too little protein for SPR; also called P mutant; source: ExpiCHO, transient transfection, purified from supernatant (His Mag Sepharose excel); not shown: His6 (after a SAG tripeptide linker), C-terminal, kept
B17: D3-L11 A79E (VHH)
VHH: B1 VHH with R79E
notes: as the VHH chain of m2 (D3-L11, PDB 6JB8) with the stated substitution; Second-round mutant; same construct as m2; Too little protein for SPR; also called E mutant; source: ExpiCHO, transient transfection, purified from supernatant (His Mag Sepharose excel); not shown: His6 (after a SAG tripeptide linker), C-terminal, kept
B18: D3-L11 A79K (VHH)
VHH: B1 VHH with R79K
notes: as the VHH chain of m2 (D3-L11, PDB 6JB8) with the stated substitution; Second-round mutant; same construct as m2; Too little protein for SPR; also called K mutant; source: ExpiCHO, transient transfection, purified from supernatant (His Mag Sepharose excel); not shown: His6 (after a SAG tripeptide linker), C-terminal, kept

These binders were tested against T1, hen egg lysozyme (Gallus gallus (hen egg white), UniProt P00698) (assay: SPR; Biacore T200; lysozyme immobilised on Sensor Chip CM5 by amine coupling (200 RU); VHH injected 300 s, dissociation 600 s in PBST (PBS, 0.005% Tween 20); 1:1 binding model; duplicate). Conditions: both partners purified.
T1 construct: hen egg lysozyme (HEL), the antigen of D3-L11; also in PDB 6JB8; The supplier is named for the ELISA only; also called HEL; antigen lysozyme; source: bought: Sigma-Aldrich, Cat No. L6876
T1 sequence (P00698 19-147): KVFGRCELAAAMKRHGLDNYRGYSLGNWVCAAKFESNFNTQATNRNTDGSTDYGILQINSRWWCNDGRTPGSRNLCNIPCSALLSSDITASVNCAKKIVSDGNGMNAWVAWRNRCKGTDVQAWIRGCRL

Row | Binder | Kd [nM]
1 | B1 | 0.026 ± 0.0001

What follows are binders tested against T2, hen egg lysozyme (Gallus gallus (hen egg white), UniProt P00698) (assay: SPR; Biacore T200; lysozyme immobilised on Sensor Chip CM5 by amine coupling to 200 RU; VHH injected 300 s, dissociation 600 s; running buffer PBST (PBS, 0.005% Tween 20); duplicate; 1:1 binding model). Conditions: both partners purified.
T2 construct: hen egg lysozyme (HEL), antigen of VHH D3-L11; also in the complex structure PDB 6JB8; also called HEL; antigen lysozyme; source: bought: Sigma-Aldrich, Cat No. L6876 (named for the ELISA)
T2 sequence (P00698 19-147): as above

Row | Binder | fold decrease in affinity (KD) against wild type [fold]
2 | B2 | < 10
3 | B3 | < 10
4 | B4 | 1.6
5 | B5 | < 2
6 | B6 | < 10
7 | B7 | < 10
8 | B8 | < 10
9 | B9 | < 10
10 | B10 | < 10
11 | B11 | < 2
12 | B12 | < 10
13 | B13 | < 10
14 | B14 | < 2
15 | B15 | < 10

These binders were tested against T2, hen egg lysozyme (assay: ELISA; lysozyme (1 ug/mL) coated on 384-well MaxiSorp plate overnight at 4 °C; serial concentrations of VHH in 5% BlockingOne in TBST, 1 h at room temperature; detected with Penta-His HRP conjugate). Conditions: both partners purified.

Row | Binder | binding result | fold decrease in affinity (EC50) against wild type [fold]
16 | B16 | binds | –
17 | B6 | – | < 10
18 | B7 | – | < 10
19 | B8 | – | < 10
20 | B9 | – | < 10
21 | B17 | binds | –
22 | B14 | – | < 10
23 | B18 | binds | –
